From PMC8163098

What was measured:
[1] = biological target: mouse 80S ribosomes (monosomes) and polysomes (mouse (endogenous in neocortex and Neuro2a)) (UniProt P84099); experiment: cryo-EM structure
[2] = biological target: rabbit reticulocyte 60S ribosomal subunit (rabbit (endogenous in reticulocyte lysate)) (UniProt G1SV32); experiment: co-sedimentation

overall occupancy [1]	percent of ribosomes with Ebp1 bound [1]	percent of ribosomes with Ebp1 bound, each of the five sub-states [1]	Ebp1 concentration at saturated binding (100 nM 60S) [2]	Kd [2]	Substance
52%	48%	50%	–	–	ErbB3-binding protein 1 (Ebp1), endogenous full-length mouse protein (from UniProt P50580-1 1-394) (natural protein)
–	–	–	200 nM	124 nM	polyhistidine-tagged full-length recombinant Ebp1 (Ebp1-His) (from UniProt P50580 1-394) (natural protein)
